# Reference: patent US20190359687A1 (Bayer, published 2019)
# Substitutions are numbered along the chain they refer to.
# B1: TPP-7778, affinity matured 6C12 Fab (Fab, V domains shown)
# VH: EVQLVQSGAEVKKPGASVKVSCKASGYTFTTYAIHWVRQAPGQGLEWMGYINPSSGYTRYNPKFKHRVTMTRDKSTSTAYMELRSLRSDDTAVYYCQTGTRDYWGQGTTVTVSS
# VL: DIQLTQSPSFLSASVGDRVTITCRASSSVRYIYWFQQKPGKAPKLLIYATSTLQSGVPSRFSGSGSGTEYTLTISSLQPEDFATYYCHQRNSFPYTFGQGTKLEIK
# notes: Tested as Fab
# B2: TPP-7782, affinity matured 6C12 Fab (Fab, V domains shown)
# VH: B1 VH with A33T, H66G
# VL: B1 VL with T52F, L53R
# notes: Tested as Fab
# B3: TPP-7781, affinity matured 6C12 Fab (Fab, V domains shown)
# VH: B1 VH with A33T, S54K, Y57W, H66G
# VL: B1 VL
# notes: Tested as Fab
# B4: TPP-7793, affinity matured 6C12 Fab (Fab, V domains shown)
# VH: B1 VH with T31R, A33T, H66G, Q97W
# VL: B1 VL with R30S
# notes: Tested as Fab
# B5: TPP-7796, affinity matured 6C12 Fab (Fab, V domains shown)
# VH: B1 VH with A33T, S54K, Y57W, H66G
# VL: B1 VL with R30S
# notes: Tested as Fab
# B6: TPP-7792 scFv with C-terminal 6xHIS tag (scFv)
# scFv: DIQLTQSPSFLSASVGDRVTITCRASSSVRYIYWFQQKPGKAPKLLIYATSFRQSGVPSRFSGSGSGTEYTLTISSLQPEDFATYYCHQRNSFPYTFGQGTKLEIKGGGGSGGGGSGGGGSGGGGSEVQLVQSGAEVKKPGASVKVSCKASGYTFTTYAIHWVRQAPGQGLEWMGYINPSSGYTRYNPKFKGRVTMTRDKSTSTAYMELRSLRSDDTAVYYCWTGTRDYWGQGTTVTVSSHHHHHH
# B7: TPP-7781 scFv with C-terminal 6xHIS tag (scFv)
# scFv: B6 scFv with F52T, R53L, A159T, S180K, Y183W, W223Q
# B8: TPP-7778 scFv with C-terminal 6xHIS tag (scFv)
# scFv: B6 scFv with F52T, R53L, G192H, W223Q
# B9: TPP-7782 scFv with C-terminal 6xHIS tag (scFv)
# scFv: B6 scFv with A159T, W223Q
# B10: TPP-7783 scFv with C-terminal 6xHIS tag (scFv)
# scFv: B6 scFv with Q54R, G192H
# B11: TPP-7790 scFv with C-terminal 6xHIS tag (scFv)
# scFv: B6 scFv with R53L, G192H
# Target: T1, human glycophorin A on human red blood cells or red blood cell membranes (human, UniProt P02724 20-150)
# T1 construct: whole, on cells; also called hRBC; human RBC membranes
# T1 sequence (looked up): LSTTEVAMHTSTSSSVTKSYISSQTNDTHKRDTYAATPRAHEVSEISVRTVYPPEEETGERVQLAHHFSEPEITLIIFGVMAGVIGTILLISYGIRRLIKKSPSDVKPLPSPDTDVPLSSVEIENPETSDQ
# Experiment: SPR (Biacore), Fab on human RBC membranes;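 also: human RBC membranes captured on an L1 sensor chip, Fab fragments passed over as analyte, binding kinetics read by surface plasmon resonance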
# Method: (§1) Kinetic analysis of the antibody binding to human red blood cell membranes was also performed using surface plasmon resonance (SPR) using a Biacore instrument. In this assay membranes prepared from human red blood cells were attached to a L1 sensor matrix and antibodies were flowed over the RBC membranes.
# (§2) The binding kinetics of the affinity matured Fab antibodies was also measured.
Binder,Kd [nM],koff [s⁻¹]
B1,0.011,0.0011
B2,0.0295,0.000413
B3,0.0289,0.000547
B4,0.0246,0.000504
B5,0.111,0.00238

# Target: T1, human glycophorin A on human red blood …
# Experiment: SPR (Biacore), Fab on human RBC membranes; T½ = 0.69/kd;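 as to Kd: human RBC membranes captured on an L1 sensor chip, Fab fragments passed over as analyte, binding kinetics read by surface plasmon resonance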;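 as to koff: human RBC membranes captured on an L1 sensor chip, Fab fragments passed over as analyte, binding kinetics read by surface plasmon resonance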
# Method: as §1, §2
row,Binder,Estimated T½ [min]
1,B1,10
2,B2,28
3,B3,21
4,B4,23
5,B5,5

# Target: T2, Cynomolgus monkey glycophorin A on Cynomolgus monkey red blood cells or red blood cell membranes (Cynomolgus monkey)
# T2 construct: whole, on cells; also called Cyno RBC; Cynomolgus monkey RBC membranes
# Experiment: Fab 7 ug/ml on intact cyno RBC, unbound Fab by ELISA; pre-dilution
row,Binder,percentage of input antibody bound [%]
1,B1,81
2,B2,94
3,B3,86
4,B4,72
5,B5,68

# Target: T1, human glycophorin A on human red blood …
# Experiment: Fab 7 ug/ml on intact human RBC, unbound Fab by ELISA; pre-dilution
row,Binder,percentage of input antibody bound [%]
1,B1,95
2,B2,99
3,B3,97
4,B4,98
5,B5,96

# Target: T1, human glycophorin A on human red blood …
# Experiment: scFv 7 ug/ml on intact human RBC, unbound scFv by ELISA; pre-dilution
# Method: (§3) RBC diluted to 1/10th of normal hematocrit were incubated with the set of “Top 10” purified scFv antibodies at a final concentration of 7 ug/ml for 1 hour at room temperature on a rotating shaker after which a sample was taken and the RBC were pelleted by centrifugation and the supernatant was collected. The remaining RBC suspension was diluted 200-fold in PBS buffer and incubated for a total of 2 hours at room temperature on a rotating shaker and samples were removed at 0, 5 min, 20 min, 1 h and 2 h and the RBC pelleted and the supernatant collected. […] The percentage that remains bound after dilution is an indication of the overall strength of the binding to human RBC.
row,Binder,percentage of input scFv antibody bound [%]
1,B6,100
2,B7,97
3,B8,98
4,B9,92
5,B10,94
6,B11,99

# Target: T1, human glycophorin A on human red blood …
# Experiment: SPR (Biacore), Fab on human RBC membranes; * not accurate, instrument limit;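 as to Kd: human RBC membranes captured on an L1 sensor chip, Fab fragments passed over as analyte, binding kinetics read by surface plasmon resonance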
# Method: as §1, §2
row,Binder,kon [M⁻¹ s⁻¹]
1,B1,1e+08
2,B2,1.4e+07
3,B3,1.89e+07
4,B4,2.05e+07
5,B5,2.15e+07

# Target: T2, Cynomolgus monkey glycophorin A on …
# Experiment: Fab on intact cyno RBC, unbound Fab by ELISA; 0 min after 200-fold dilution
# Method: (§4) The binding of affinity matured Fab antibodies to intact Cynomolgus monkey RBC was measured. Cynomolgus monkey RBC were isolated from fresh anti-coagulated blood by centrifugation through a ficol gradient and washing in PBS buffer. RBC diluted to 1/10th of normal hematocrit were incubated with the Fab at a final concentration of 7 ug/ml for 1 hour at room temperature on a rotating shaker after which a sample was taken and the RBC were pelleted by centrifugation and the supernatant was collected. The remaining RBC suspension was diluted 200-fold in PBS buffer and incubated for a total of 2 hours at room temperature on a rotating shaker and samples were removed at 0, 5 min, 20 min, 1 h and 2 h and the RBC pelleted and the supernatant collected. […] The amount of Fab in the supernatants was then measured using an ELISA assay and the results used to calculate the percentage of the input Fab that was bound to the RBC.
row,Binder,percentage of input antibody bound [%]
1,B1,56
2,B2,88
3,B3,40
4,B4,58
5,B5,56

# Target: T2, Cynomolgus monkey glycophorin A on …
# Experiment: Fab on intact cyno RBC, unbound Fab by ELISA; 5 min after 200-fold dilution
row,Binder,percentage of input antibody bound [%]
1,B1,54
2,B2,68
3,B3,34
4,B4,58
5,B5,43

# Target: T1, human glycophorin A on human red blood …
# Experiment: Fab on intact human RBC, unbound Fab by ELISA; 0 min after 200-fold dilution
# Method: (§5) The binding of affinity matured Fab antibodies to intact human RBC was also measured. Human RBC were isolated from fresh anti-coagulated normal human blood by centrifugation through a ficol gradient and washing in PBS buffer. RBC diluted to 1/10th of normal hematocrit were incubated with purified Fab antibodies at a final concentration of 7 ug/ml for 1 hour at room temperature on a rotating shaker after which a sample was taken and the RBC were pelleted by centrifugation and the supernatant was collected. The remaining RBC suspension was diluted 200-fold in PBS buffer and incubated for a total of 2 hours at room temperature on a rotating shaker and samples were removed at 0, 5 min, 20 min, 1 h and 2 h and the RBC pelleted and the supernatant collected. The amount of Fab in the supernatants was then measured using an ELISA assay and the results used to calculate the percentage of the input Fab that was bound to the RBC. […] The percentage that remains bound after 200-fold dilution of the RBC suspension is an indication of the overall strength of the binding to human RBC.
row,Binder,percentage of input antibody bound [%]
1,B1,84
2,B2,95
3,B3,93
4,B4,96
5,B5,82

# Target: T1, human glycophorin A on human red blood …
# Experiment: Fab on intact human RBC, unbound Fab by ELISA; 5 min after 200-fold dilution
# Method: as §5
row,Binder,percentage of input antibody bound [%]
1,B1,76
2,B2,83
3,B3,69
4,B4,92
5,B5,48

# Target: T2, Cynomolgus monkey glycophorin A on …
# Experiment: Fab on intact cyno RBC, unbound Fab by ELISA; 20 min after 200-fold dilution
row,Binder,percentage of input antibody bound [%]
1,B1,48
2,B2,59
3,B3,32
4,B4,51
5,B5,21

# Target: T2, Cynomolgus monkey glycophorin A on …
# Experiment: Fab on intact cyno RBC, unbound Fab by ELISA; 60 min after 200-fold dilution
row,Binder,percentage of input antibody bound [%]
1,B1,36
2,B2,57
3,B3,24
4,B4,51
5,B5,7

# Target: T1, human glycophorin A on human red blood …
# Experiment: Fab on intact human RBC, unbound Fab by ELISA; 20 min after 200-fold dilution
# Method: as §5
row,Binder,percentage of input antibody bound [%]
1,B1,66
2,B2,76
3,B3,61
4,B4,86
5,B5,12

# Target: T1, human glycophorin A on human red blood …
# Experiment: Fab on intact human RBC, unbound Fab by ELISA; 60 min after 200-fold dilution
row,Binder,percentage of input antibody bound [%]
1,B1,66
2,B2,79
3,B3,64
4,B4,85
5,B5,15

# Target: T2, Cynomolgus monkey glycophorin A on …
# Experiment: Fab on intact cyno RBC, unbound Fab by ELISA; 120 min after 200-fold dilution
# Method: as §4
row,Binder,percentage of input antibody bound [%]
1,B1,27
2,B2,52
3,B3,19
4,B4,46
5,B5,0

# Target: T1, human glycophorin A on human red blood …
# Experiment: Fab on intact human RBC, unbound Fab by ELISA; 120 min after 200-fold dilution
row,Binder,percentage of input antibody bound [%]
1,B1,64
2,B2,77
3,B3,59
4,B4,86
5,B5,13

# Target: T1, human glycophorin A on human red blood …
# Experiment: scFv on intact human RBC, unbound scFv by ELISA; 0 min after 200-fold dilution
# Method: as §3
row,Binder,percentage of input scFv antibody bound [%]
1,B6,100
2,B7,97
3,B8,97
4,B9,92
5,B10,94
6,B11,99

# Target: T1, human glycophorin A on human red blood …
# Experiment: scFv on intact human RBC, unbound scFv by ELISA; 5 min after 200-fold dilution
# Method: as §3
row,Binder,percentage of input scFv antibody bound [%]
1,B6,99
2,B7,94
3,B8,88
4,B9,91
5,B10,94
6,B11,99

# Target: T1, human glycophorin A on human red blood …
# Experiment: scFv on intact human RBC, unbound scFv by ELISA; 20 min after 200-fold dilution
# Method: as §3
row,Binder,percentage of input scFv antibody bound [%]
1,B6,98
2,B7,93
3,B8,81
4,B9,87
5,B10,94
6,B11,99

# Target: T1, human glycophorin A on human red blood …
# Experiment: scFv on intact human RBC, unbound scFv by ELISA; 60 min after 200-fold dilution
# Method: as §3
row,Binder,percentage of input scFv antibody bound [%]
1,B6,95
2,B7,93
3,B8,79
4,B9,89
5,B10,94
6,B11,94

# Target: T1, human glycophorin A on human red blood …
# Experiment: scFv on intact human RBC, unbound scFv by ELISA; 120 min after 200-fold dilution
# Method: as §3
row,Binder,percentage of input scFv antibody bound [%]
1,B6,92
2,B7,92
3,B8,76
4,B9,85
5,B10,94
6,B11,87
